{"source": "paper PMC5539989", "target": "GAL4 DBD-BRCA1 wild type (C-terminal region) (human) (UniProt P38398)", "sequence (P38398 1396-1863)": "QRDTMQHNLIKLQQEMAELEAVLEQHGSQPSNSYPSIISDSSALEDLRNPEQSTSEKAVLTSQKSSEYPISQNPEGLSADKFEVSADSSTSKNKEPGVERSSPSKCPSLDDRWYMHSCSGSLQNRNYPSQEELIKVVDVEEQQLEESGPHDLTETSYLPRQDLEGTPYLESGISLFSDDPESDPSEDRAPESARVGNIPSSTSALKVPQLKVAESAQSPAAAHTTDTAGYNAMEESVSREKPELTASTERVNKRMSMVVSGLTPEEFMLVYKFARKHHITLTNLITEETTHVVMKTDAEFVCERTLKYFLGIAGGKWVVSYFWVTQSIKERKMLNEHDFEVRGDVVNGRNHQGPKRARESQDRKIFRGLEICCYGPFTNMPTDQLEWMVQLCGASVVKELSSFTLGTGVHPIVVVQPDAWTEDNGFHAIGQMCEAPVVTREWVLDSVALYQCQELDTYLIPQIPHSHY", "experiment": "two-hybrid; mammalian two-hybrid: GAL4 DBD-BRCA1 as bait, VP16 AD-PALB2 as prey, co-transfected with the pG5Luc luciferase reporter and the phGR-TK Renilla control; read-out is luciferase activity above that of the BRCA1 construct alone"}
{"binder": "VP16 AD–PALB2 fusion protein (PALB2 aa 1–319) (domain or fragment) MDEPPGKPLSCEEKEKLKEKLAFLKREYSKTLARLQRAQRAEKIKHSIKKTVEEQDCLSQQDLSPQLKHSEPKNKICVYDKLHIKTHLDEETGEKTSITLDVGPESFNPGDGPGGLPIQRTDDTQEHFPHRVSDPSGEQKQKLPSRRKKQQKRTFISQERDCVFGTDSLRLSGKRLKEQEEISSKNPARSPVTEIRTHLLSLKSELPDSPEPVTEINEDSVLIPPTAQPEKGVDTFLRRPNFTRATTVPLQTLSDSGSSQHLEHIPPKGSSELTTHDLKNIRFTSPVSLEAQGKKMTVSTDNLLVNKAISKSGQLPTSS", "values": [{"measurement": "fold increase in luciferase activity with VP16-PALB2", "result": 3.8, "unit": "fold"}]}
